The source of these data is patent US20250320281A1.

Common to all, as to assay: cell-based or functional assay
For assay [1], the target named is HIV-1 Env of isolate MGRM-C-001 (HIV-1).
For assay [2], the target named is HIV-1 Env of isolate MGRM-C-002 (HIV-1).
Assay [3] has as its target HIV-1 Env of isolate MGRM-C-004 (HIV-1).
For assay [4], the target named is HIV-1 Env of isolate MGRM-C-005 (HIV-1).
Assay [5] addresses HIV-1 Env of isolate MGRM-C-006 (HIV-1).
In assay [6] the target is HIV-1 Env of isolate MGRM-C-007 (HIV-1).
The target of assay [7] is HIV-1 Env of isolate MGRM-C-008 (HIV-1).
The target in assay [8] is HIV-1 Env of isolate MGRM-C-009 (HIV-1).
Assay [9] has as its target HIV-1 Env of isolate MGRM-C-010 (HIV-1).
The target in assay [10] is HIV-1 Env of isolate MGRM-C-012 (HIV-1).
Assay [11] concerns the target HIV-1 Env of isolate MGRM-C-013 (HIV-1).
Assay [12] deals with HIV-1 Env of isolate MGRM-C-014 (HIV-1).
Assay [13] deals with HIV-1 Env of isolate MGRM-C-015 (HIV-1).
Assay [14] has as its target HIV-1 Env of isolate MGRM-C-017 (HIV-1).
For assay [15], the target named is HIV-1 Env of isolate MGRM-C-019 (HIV-1).
For assay [16], the target named is HIV-1 Env of isolate MGRM-C-020 (HIV-1).
In assay [17] the target is HIV-1 Env of isolate MGRM-C-022 (HIV-1).
The target in assay [18] is HIV-1 Env of isolate MGRM-C-023 (HIV-1).
For assay [19], the target named is HIV-1 Env of isolate MGRM-C-024 (HIV-1).
The target of assay [20] is HIV-1 Env of isolate MGRM-C-025 (HIV-1).
Assay [21] deals with HIV-1 92RW020 Env (pseudovirus) (HIV-1).
For assay [22], the target named is HIV-1 92TH021 Env (pseudovirus) (HIV-1).
Assay [23] concerns the target HIV-1 92UG024 Env (pseudovirus) (HIV-1).
Assay [24] addresses HIV-1 93IN905 Env (pseudovirus) (HIV-1).
For assay [25], the target named is HIV-1 94UG103 Env (pseudovirus) (HIV-1).
In assay [26] the target is HIV-1 APV6 Env (pseudovirus) (HIV-1).
The target in assay [27] is HIV-1 JRCSF Env (pseudovirus) (HIV-1) (UniProt P20871).
Assay [28] has as its target HIV-1 MGRM-A-010 Env (pseudovirus) (HIV-1).
In assay [29] the target is HIV-1 MGRM-C-026 Env (pseudovirus) (HIV-1).
The target of assay [30] is HIV-1 MGRM-C-027 Env (pseudovirus) (HIV-1).
Assay [31] has as its target HIV-1 MGRM-C-028 Env (pseudovirus) (HIV-1).
Assay [32] deals with HIV-1 MGRM-D-018 Env (pseudovirus) (HIV-1).
For assay [33], the target named is HIV-1 NL43 Env (pseudovirus) (HIV-1).
Assay [34] has as its target HIV-1 92UG005 Env (pseudovirus) (HIV-1).
In assay [35] the target is HIV-1 CMU02 Env (pseudovirus) (HIV-1).

Chain of 4970_K22 (PGT-144) (antibody) (VH): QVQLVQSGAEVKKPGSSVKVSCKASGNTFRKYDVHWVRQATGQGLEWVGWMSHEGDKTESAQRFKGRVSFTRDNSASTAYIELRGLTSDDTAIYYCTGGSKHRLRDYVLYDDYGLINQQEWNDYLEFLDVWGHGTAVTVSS
Chain of 4970_K22 (PGT-144) (antibody) (VL): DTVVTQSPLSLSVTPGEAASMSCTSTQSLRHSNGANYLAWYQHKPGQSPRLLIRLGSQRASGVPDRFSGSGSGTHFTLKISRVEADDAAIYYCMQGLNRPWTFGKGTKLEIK
Chain of 4995_E20 (PGT-142) (antibody) (VH): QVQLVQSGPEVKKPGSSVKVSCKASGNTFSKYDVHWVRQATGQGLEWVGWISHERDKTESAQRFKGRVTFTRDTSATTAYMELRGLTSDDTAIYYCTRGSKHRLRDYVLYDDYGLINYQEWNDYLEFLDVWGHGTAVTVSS
Chain of 4995_E20 (PGT-142) (antibody) (VL): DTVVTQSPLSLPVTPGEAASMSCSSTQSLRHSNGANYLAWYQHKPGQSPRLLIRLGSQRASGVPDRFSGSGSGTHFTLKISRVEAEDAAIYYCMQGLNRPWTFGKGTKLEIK
Chain of 4980_N08 (PGT-143) (antibody) (VH): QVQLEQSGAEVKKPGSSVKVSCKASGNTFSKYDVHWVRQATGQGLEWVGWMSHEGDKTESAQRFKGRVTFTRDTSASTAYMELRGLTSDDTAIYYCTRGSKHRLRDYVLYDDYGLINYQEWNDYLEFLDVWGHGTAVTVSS
Chain of 4980_N08 (PGT-143) (antibody) (VL): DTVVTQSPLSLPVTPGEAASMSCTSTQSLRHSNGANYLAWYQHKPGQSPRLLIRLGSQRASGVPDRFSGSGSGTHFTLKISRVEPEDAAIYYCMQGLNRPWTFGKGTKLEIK
Chain of 4993_K13 (PGT-141) (antibody) (VH): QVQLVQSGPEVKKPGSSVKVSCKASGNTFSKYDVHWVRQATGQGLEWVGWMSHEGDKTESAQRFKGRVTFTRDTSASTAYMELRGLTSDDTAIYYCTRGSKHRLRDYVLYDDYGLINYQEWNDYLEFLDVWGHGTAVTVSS

As for 2F5 (antibody), the concentration for half-maximal inhibition (IC50) – broadly, the concentration at which inhibition is half-maximal – was greater than 50 µg/mL in assay [1]; 44.7 µg/mL in [2]; greater than 50 µg/mL in assay [3]; greater than 50 µg/mL in assay [4]; greater than 50 µg/mL in assay [5]; greater than 50 µg/mL in assay [6]. The IC50 in assay [7] is greater than 50 µg/mL; in assay [8], greater than 50 µg/mL; in [9], greater than 50 µg/mL; in [10] it was greater than 50 µg/mL; in assay [11], 18.4 µg/mL; in [12], greater than 50 µg/mL. In addition, the IC50 in assay [13], in [14], in assay [15], in assay [16], in assay [17] and in [18] was greater than 50 µg/mL each time. For the same substance, the concentration for half-maximal inhibition (IC50) in assay [19] and in [20] was greater than 50 µg/mL each time.

For 2G12 (antibody), the half-inhibitory concentration (IC50) was 2.93 µg/mL in assay [1]; greater than 50 µg/mL in assay [2]; greater than 50 µg/mL in assay [3]; greater than 50 µg/mL in [4]; greater than 50 µg/mL in [5]; greater than 50 µg/mL in assay [6]. Also, the half-maximal inhibitory concentration (IC50) in assay [7], in assay [8], in assay [9], in assay [10], in [11] and in [12] was greater than 50 µg/mL each time. Further, the IC50 is 1.75 µg/mL in assay [13]; greater than 50 µg/mL in [14]; greater than 50 µg/mL in assay [15]; 18.6 µg/mL in assay [16]; greater than 50 µg/mL in [17]; greater than 50 µg/mL in assay [18]. In addition, the IC50 in [19] and in assay [20] was greater than 50 µg/mL each time.

For the substance 1496_C09 (PG9) (TCN-109) (antibody), the neutralization IC50 (pseudovirus) in [21] amounted to 0.161 µg/mL; in assay [22], 0.103 µg/mL; in assay [23] it was 1.91 µg/mL; in assay [24], 0.048 µg/mL; in [25] it was 0.31 µg/mL; in assay [26], 0.214 µg/mL. For the same substance, the neutralization IC50 (pseudovirus) in assay [27] stood at 0.0048 µg/mL; in assay [28] it was 0.0375 µg/mL; in assay [29], 0.113 µg/mL; in assay [30], 2.45 µg/mL; in assay [31] it was 0.121 µg/mL; in assay [32], 2.04 µg/mL. The same substance yielded a neutralization IC50 (pseudovirus) in assay [33] of 0.687 µg/mL. The IC50 in assay [3] worked out at 1.18 µg/mL; in assay [4], 2.98 µg/mL; in assay [5], 0.23 µg/mL; in assay [6] it was 0.09 µg/mL; in assay [9], 12.4 µg/mL; in assay [10] it was 0.24 µg/mL. The IC50 turned out to be 0.64 µg/mL in [12]; 0.5 µg/mL in assay [13]; 1.52 µg/mL in assay [14]; 0.01 µg/mL in [15]; 0.19 µg/mL in [17]; 0.51 µg/mL in assay [18]. In addition, the IC50 was determined as 0.22 µg/mL in assay [19] and 0.17 µg/mL in [20].

With 4970_K22 (PGT-144) (antibody), the neutralization IC50 (pseudovirus) in assay [21] was greater than 10 µg/mL. Further, the IC50 (neutralizing activity, pseudovirus) in [22] was 0.0934 µg/mL; in [34], greater than 10 µg/mL; in assay [23], greater than 10 µg/mL; in assay [24], 0.158 µg/mL; in assay [25], greater than 10 µg/mL; in [26], greater than 10 µg/mL. In addition, the IC50 (neutralizing activity, pseudovirus) in assay [35] was greater than 10 µg/mL; in assay [27], 0.128 µg/mL; in [28], 4.02 µg/mL; in [29] it was greater than 10 µg/mL; in assay [30], greater than 10 µg/mL; in [31], greater than 10 µg/mL. Also, the IC50 (neutralizing activity, pseudovirus) in assay [32] and in assay [33] was greater than 10 µg/mL each time.

In assay [21], 4980_N08 (PGT-143) (antibody) yielded a neutralization IC50 (pseudovirus) greater than 10 µg/mL. The IC50 (neutralizing activity, pseudovirus) was 0.0028 µg/mL in assay [22]; greater than 10 µg/mL in assay [34]; greater than 10 µg/mL in assay [23]; 0.0021 µg/mL in assay [24]; greater than 10 µg/mL in assay [25]; 4.43 µg/mL in assay [26]. The IC50 (neutralizing activity, pseudovirus) in assay [35] is greater than 10 µg/mL; in [27] it was 0.0064 µg/mL; in assay [28] it was 0.0657 µg/mL; in assay [29], greater than 10 µg/mL; in [30], 0.505 µg/mL; in [31], 1.82 µg/mL. In addition, the values for the IC50 (neutralizing activity, pseudovirus) in assay [32] and in assay [33] were greater than 10 µg/mL and 0.585 µg/mL, respectively.

On to 4993_K13 (PGT-141) (antibody), for which, in assay [21], the neutralization IC50 (pseudovirus) is greater than 10 µg/mL. Further, the IC50 (neutralizing activity, pseudovirus) in [22] is 0.0019 µg/mL; in assay [34], greater than 10 µg/mL; in [23] it was greater than 10 µg/mL; in [24], 0.0016 µg/mL; in [25], greater than 10 µg/mL; in assay [26] it was 5.08 µg/mL. The IC50 (neutralizing activity, pseudovirus) in [35] is greater than 10 µg/mL; in [27], 0.0047 µg/mL; in assay [28] it was 0.0563 µg/mL; in [29], greater than 10 µg/mL; in [30], 0.822 µg/mL; in assay [31], 2.35 µg/mL. Besides, the figures for the IC50 (neutralizing activity, pseudovirus) in [32] and in [33] were greater than 10 µg/mL and 0.856 µg/mL, respectively.

Regarding 4995_E20 (PGT-142) (antibody), in assay [21], the neutralization IC50 (pseudovirus) was greater than 10 µg/mL. Further, the IC50 (neutralizing activity, pseudovirus) in assay [22] is 0.0022 µg/mL; in [34] it was greater than 10 µg/mL; in assay [23], greater than 10 µg/mL; in [24], 0.0017 µg/mL; in [25], greater than 10 µg/mL; in assay [26], 5.42 µg/mL. The IC50 (neutralizing activity, pseudovirus) in assay [35] is greater than 10 µg/mL; in [27] it was 0.0085 µg/mL; in [28], 0.0578 µg/mL; in assay [29], greater than 10 µg/mL; in assay [30], 0.272 µg/mL; in [31] it was 1.23 µg/mL. Further, the IC50 (neutralizing activity, pseudovirus) in [32] is greater than 10 µg/mL; in [33], 0.712 µg/mL.

On to VRC01 (antibody), for which, in assay [3], the IC50, pseudovirus neutralization came out at 1.01 µg/mL. Also, the IC50 (µg/mL), pseudovirus neutralization was greater than 50 µg/mL in [12]; 1.57 µg/mL in [13]; 0.366 µg/mL in assay [14]; 1.13 µg/mL in assay [15]; 0.396 µg/mL in assay [16]; 13 µg/mL in assay [17]. Also, the figures for the IC50 (µg/mL), pseudovirus neutralization in assay [18], in assay [19] and in assay [20] were 0.077 µg/mL, 3.4 µg/mL and 2.36 µg/mL, respectively.
